Experimental data taken from patent US20190382738A1.

T1: B-Raf kinase, P15056
T1 chain: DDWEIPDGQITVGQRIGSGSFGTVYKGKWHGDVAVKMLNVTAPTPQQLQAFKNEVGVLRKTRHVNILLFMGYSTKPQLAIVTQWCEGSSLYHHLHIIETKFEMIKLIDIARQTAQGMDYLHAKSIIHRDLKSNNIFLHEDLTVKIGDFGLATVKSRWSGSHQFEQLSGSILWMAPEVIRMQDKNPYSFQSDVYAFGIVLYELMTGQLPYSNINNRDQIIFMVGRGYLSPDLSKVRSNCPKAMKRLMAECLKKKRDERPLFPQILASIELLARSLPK


Key:
[1] = target: T1, B-Raf kinase, P15056; assay: intrinsic fluorescence titration, column head Kd (ITF) (µM)
[2] = target: T1, B-Raf kinase, P15056; assay: isothermal titration calorimetry

| Kd [1] | ΔS [2] | Binder |
| --- | --- | --- |
| 20 nM | – | LRKTRHVNI (modifications not checked) [6257] |
| – | -28.4 J/mol·K | GVLRKARHVNILLFMGYST (modifications not checked) [Peptide corresponding to SEQ ID NO: 8] |
